From patent US5114710A, “M-CSF as a therapeutic agent for thrombocytopenia” (Green Cross Corporation, priority 1988, dated 1992) come the findings set out here.

Series [1] is described as follows: Thermal stability: colony stimulating activity after heating. Type of series: physicochemical. As to conditions: 1 μg/ml, dilute buffer pH 7.0, 60±0.5° C., 60 minutes. The procedure:
The CSF was dissolved in a dilute buffer (pH 7.0) to a concentration of 1 μg/ml, and the solution was heated at 60±0.5° C. for 60 minutes and then assayed for colony stimulating activity (to be mentioned later herein).
(§1) The colony stimulating activity of the CSF according to the invention was determined by the method involving colony formation of mouse marrow cells on a single-layer soft agar gel. Thus, the CSF sample was admixed with 1 ml of McCoy's 5A medium (GIBCO) containing 0.3% agar, 20% fetal calf serum (FCS) and 1×10^5 mouse marrow cells. Incubation was carried out at 37° C. for 7 days under a stream of 7.5% CO2 -containing air. Thereafter, cell aggregates consisting of 50 or more cells were judged as colonies and counted. The colony stimulating activity was expressed in units. One unit was defined as the quantity of CSF required for the formation of one colony. The specific activity was expressed in terms of the number of colonies (units) formed per milligram of the CSF protein. […] The colonies formed were stained with hematoxylin-eosin for morphological classification.

For series [2], the system named is patients with thrombocytopenia. The series can be described thus: Administration to patients with thrombocytopenia (summary of clinical test examples 1 and 2). Type of series: in vivo, human. As to conditions: administration in the course of chemotherapy. An excerpt: A malignant tumor patient was subjected to chemotherapy (first chemotherapy), then merely observed for a period (control phase) and, after a second chemotherapy, administered with 8×10^6 units of a glycoprotein preparation comprising the prepared in Reference Example 1 as active ingredient by intravenous drip for 7 consecutive days (preparation administration phase). Blood granulocytes and platelets were counted at timed intervals. The minimum platelet count and the number of days required for the platelet level to regain a level of at least 10^5 /mm^3 in the control phase and in the preparation administration phase are comparatively shown in Table 4.
Ten malignant tumor patients were subjected to a first chemotherapy, then observed without any treatment for a period (control phase) and, after a second chemotherapy, administered with 8×10^6 units of a glycoprotein preparation comprising the CSF prepared in Reference Example 1 as active ingredient by intravenous drip for 7 consecutive days (preparation administration phase). Blood platelets were counted at timed intervals. The minimum platelet count and the number of days required for the platelet count to regain a level of at least 10^5 /mm^3 in the control phase and in the preparation administration phase are comparatively shown in Table 5.

The nature of series [3]: Isoelectric point by polyacrylamide gel isoelectric focusing and sucrose density gradient isoelectric focusing. Type of series: physicochemical. An excerpt:
The isoelectric point (pI) as determined by the polyacrylamide gel isoelectric focusing and sucrose density gradient isoelectric focusing techniques is 3.1-3.7.

A further series relates to mouse marrow cells. Description: Colony stimulating activity: colony formation of mouse marrow cells on single-layer soft agar gel. Type of series: cell-based. The protocol:
as §1

“Also recorded” adds a separate entry of the source.

B1: CSF: human monocyte-macrophage colony stimulating factor, glycoprotein homodimer of two identical subunits (35,000-45,000 daltons each), purified from human urine (protein, UniProt P09603 33-554, looked up)
Macrophage colony-stimulating …: EEVSEYCSHMIGSGHLQSLQRLIDSQMETSCQITFEFVDQEQLKDPVCYLKKAFLLVQDIMEDTMRFRDNTPNAIAIVQLQELSLRLKSCFTKDYEEHDKACVRTFYETPLQLLEKVKNVFNETKNLLDKDWNIFSKNCNNSFAECSSQDVVTKPDCNCLYPKAIPSSDPASVSPHQPLAPSMAPVAGLTWEDSEGTEGSSLLPGEQPLHTVDPGSAKQRPPRSTCQSFEPPETPVVKDSTIGGSPQPRPSVGAFNPGMEDILDSAMGTNWVPEEASGEASEIPVPQGTELSPSRPGGGSMQTEPARPSNFLSASSPLPASAKGQQPADVTGTALPRVGPVRPTGQDWNHTPQKTDHPSALLRDPPEPGSPRISSLRPQGLSNPSTLSAQPQLSRSHSSGSVLPLGELEGRRSTRDRRSPAEPEGGPASEGAARPLPRFNSVPLTDTGHERQSEGSFSPQLQESVFHLLVPSVILVLLAVGGLLFYRWRRRSHQEPQRADSPLEQPEGSPLTQDDRQVELPV
modifications: urinary homodimer
notes: human monocyte-macrophage colony stimulating factor, glycoprotein homodimer of two identical subunits (35,000-45,000 daltons each), purified from human urine
With B1, in series [1], the “thermal stability (colony stimulating activity after heating)” value is recorded as “The biological activity is not lost; also recorded: Almost no activity decrease was observed”. The “restoration of a normal platelet level” value in series [2] is given as “rapid restoration of a normal platelet level”. The “isoelectric point (pI)” value in series [3] is 3.1-3.7. For the same molecule, the specific activity is 5.2×10^7 units/mg in the series with mouse marrow cells (Reference Example 2, CSF purified with antibody-bound carrier); 2 ×10^5 units/mg with mouse marrow cells (Reference Example 2, CSF-containing solution before antibody-bound carrier treatment); 1.6 × 10^5 units/mg with mouse marrow cells (purification step (1) DEAE-cellulose); 5.7 × 10^5 units/mg in the series on mouse marrow cells (purification step (2) Sephacryl S-300); 8.8 × 10^6 units/mg in the series with mouse marrow cells (purification step (3) Phenyl-Sepharose); 2.0 × 10^7 units/mg with mouse marrow cells (purification step (4) TSKG-3,000 SW). The specific activity in the series with mouse marrow cells (purification step (5) Hi-Pore RP-304 (final)) is recorded as 1.4 × 10^8 units/mg. In the series on mouse marrow cells (hematoxylin-eosin staining, morphological classification), the “monocyte-macrophage colonies among the colonies formed” value was “at least 95%”. Moreover, the “specific activity (colony stimulating activity)” value in the series with mouse marrow cells (purified CSF, mouse marrow cells, 7 days at 37° C., one unit = one colony) was 1.4×10^8 units per milligram of protein.
